These results are taken from patent US11155586B2, “Cystine knot scaffold platform” (Genentech, Inc., priority 2015, dated 2021).

Positions of bridges follow the written chain, without caps; N, C: chain ends. Non-standard residues stand in square brackets, D forms with d. Residues, ends and D or L forms follow the SMILES beside them. PEG6 = NCCOCCOCCOCCOCCOCCOCCC(=O)O; Pra = C#CC[C@H](N)C(=O)O

The target of assay [1] is T1, hVEGF-A (8-109) (Homo sapiens, UniProt P15692).
T1 sequence (P15692 34-135 isoform P15692-4): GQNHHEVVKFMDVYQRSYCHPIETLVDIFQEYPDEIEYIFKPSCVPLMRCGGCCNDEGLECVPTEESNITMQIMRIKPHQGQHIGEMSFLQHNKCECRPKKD
Description: SPR binding assay (BIACORE 3000, 37° C.). The settings on record: for effect of F8Y mutation on affinity/potency: SPR affinity (Table 37) and cellular IC50 (Table 38), vs variant without F8Y. The method, then:
Depending on the format of the assay either a streptavidin sensor (SA) or a dextran-coated (CM5) sensor was utilized as described below.
For use with the SA sensor, VEGF-A was first biotinylated (no more than 2 biotin/VEGF-A) by incubating the protein with EZ-link NHS-PEG4-Biotin (Pierce) in a 1:1.5 molar ratio respectively, in PBS for 2 hours on ice. Reaction was then quenched by addition of 10 molar excess of Glycine pH 8.0 and the sample was buffer exchanged into PBS using an Amicon 0.5 mL 3000 MWCO ultra-centrifugal filters (EMD Millipore). The biotinylation state of the protein was verified by LC-MS analysis. Biotinylated VEGF-A was then captured on the surface until a resonance unit (RU) signal of about ˜400. For immobilization of VEGF-A on CM5 sensor, the surface was first activated with a mixture of N-ethyl-N′-(3-dimethylaminopropyl)carbodiimide hydrochloride and N-hydroxysuccinimide (EDC/NHS) according to the supplier instructions. VEGF-A was then diluted into coupling buffer (0.1 M Acetate Buffer, pH 5.0) and injected until the signal reached about ˜400 RU followed by a wash with 1 M ethanolamine pH 8.0 to quench remaining activated sites.
Following the capture step, a series of the peptide concentrations were prepared in HBS-EP buffer with matching DMSO concentrations to 0.1% and injected at a flow rate of […]. The resulting sensorgrams were then analyzed using a 1:1 binding model to obtain kinetic data and affinities using Scrubber 2.0 (BioLogic Software).

Assay [2] deals with T2, hVEGF(8-109) (Homo sapiens, UniProt P15692).
T2 construct: hVEGF(8-109) or BSA were coated on 384-well MAXISORP™ immunoplates
T2 sequence (P15692 214-315): T1 sequence (P15692 34-135 isoform P15692-4)
Description: Spot phage ELISA. The assay is classed as binding. The method, then:
After four rounds of binding selection, individual phage clones were picked and inoculated into 450 μl 2YT media containing 50 µg/ml Carbenecillin and M13-KO7 helper phage in 96-well blocks, which were grown at 37° C. overnight. The supernatant was analyzed with spot phage ELISA as follows: hVEGF(8-109) or BSA were coated on 384-well MAXISORP™ immunoplates and phage supernatant diluted (1:3) with PBT buffer was added to the wells. The plates were washed and bound phage was detected with anti-M13-HRP followed by TMB substrate. In these assays, phage binding to BSA alone was tested in parallel to assess background binding. Clones whose binding signals for hVEGF-A (8-109) were more than 3 times higher than to BSA (background) were considered positive. Positive clones were subjected to DNA sequence analysis.
For orientation: ELISA stands for enzyme-linked immunosorbent assay.

The mark [3] stands for this setting: Table 37, surface plasmon resonance, VEGF-A.
The mark [4] stands for this setting: loop 2 variants based on VEGF_CKP9.63 framework, Table 27.

`CC[C@H](C)[C@@H]1NC(=O)[C@H](CC(N)=O)NC(=O)[C@@H](NC(=O)CN)CSSC[C@@H](C(=O)N[C@H](C(=O)N[C@H]2CSSC[C@@H](C(=O)NCC(=O)O)NC(=O)[C@H](CO)NC(=O)[C@H](CCC(N)=O)NC(=O)[C@H](Cc3ccc(O)cc3)NC(=O)[C@H](Cc3ccc(O)cc3)NC(=O)[C@H](CCC(N)=O)NC2=O)C(C)C)NC(=O)CNC(=O)[C@H](C)NC(=O)[C@H](CC(C)C)NC(=O)[C@@H]2CSSC[C@H](NC(=O)CNC(=O)[C@H](Cc3c[nH]c4ccccc34)NC(=O)[C@H](Cc3ccc(O)cc3)NC(=O)[C@@H]3CCCN3C(=O)[C@H](CC(C)C)NC(=O)[C@H](CCSC)NC1=O)C(=O)NCC(=O)N[C@@H](CCC(N)=O)C(=O)N[C@@H](CO)C(=O)N[C@@H](Cc1ccccc1)C(=O)N[C@@H](CCC(=O)O)C(=O)N2` [VEGF_CKP9.54.1.F8Y] (H-GCNIMLPYWGCGQSFECLAGCVCQYYQSCG-OH; disulfide 2-21, 11-17, 23-29 (inferred); N-terminus and C-terminus assumed): in assay [1], the “effect of F8Y mutation on affinity/potency” value is “modest improvement”. The molecule further had a kd in assay [1] (setting [3]) of 0.38.

Take `CC[C@H](C)[C@@H]1NC(=O)[C@H](CC(N)=O)NC(=O)[C@@H](NC(=O)CN)CSSC[C@@H](C(=O)N[C@H](C(=O)N[C@H]2CSSC[C@@H](C(=O)NCC(=O)O)NC(=O)[C@H](CO)NC(=O)[C@H](CCC(N)=O)NC(=O)[C@H](Cc3ccc(O)cc3)NC(=O)[C@H](Cc3ccc(O)cc3)NC(=O)[C@H](CCC(N)=O)NC2=O)C(C)C)NC(=O)CNC(=O)[C@H](C)NC(=O)[C@H](CC(C)C)NC(=O)[C@@H]2CSSC[C@H](NC(=O)CNC(=O)[C@H](Cc3c[nH]c4ccccc34)NC(=O)[C@H](Cc3ccccc3)NC(=O)[C@@H]3CCCN3C(=O)[C@H](CC(C)C)NC(=O)[C@H](CCSC)NC1=O)C(=O)NCC(=O)N[C@@H](CCC(N)=O)C(=O)N[C@@H](CO)C(=O)N[C@@H](Cc1ccccc1)C(=O)N[C@@H](CCC(=O)O)C(=O)N2` [VEGF_CKP9.54.1] (H-GCNIMLPFWGCGQSFECLAGCVCQYYQSCG-OH; disulfide 2-21, 11-17, 23-29 (inferred); N-terminus and C-terminus assumed): the “S/N (signal to noise ratio as compared to BSA control)” value in assay [2] (Table 26) is 29.9. In assay [2] (loop 2 variants based on 9.54 framework, Table 26), this molecule gave an ELISA of 2.4. In assay [1] (setting [3]), this molecule showed a kd of 0.36.

For the molecule `C#CC[C@H](N)C(=O)NCCOCCOCCOCCOCCOCCOCCC(=O)N[C@H]1CSSC[C@@H](C(=O)N[C@H](C(=O)N[C@H]2CSSC[C@@H](C(=O)NCC(=O)O)NC(=O)[C@H](CO)NC(=O)[C@H](CCC(N)=O)NC(=O)[C@H](Cc3ccc(O)cc3)NC(=O)[C@H](Cc3ccc(O)cc3)NC(=O)[C@H](CCC(N)=O)NC2=O)C(C)C)NC(=O)CNC(=O)[C@H](C)NC(=O)[C@H](CC(C)C)NC(=O)[C@@H]2CSSC[C@H](NC(=O)CNC(=O)[C@H](Cc3c[nH]c4ccccc34)NC(=O)[C@H](Cc3ccccc3)NC(=O)[C@@H]3CCCN3C(=O)[C@H](CC(C)C)NC(=O)[C@H](CCSC)NC(=O)[C@H]([C@@H](C)CC)NC(=O)[C@H](CC(N)=O)NC1=O)C(=O)NCC(=O)N[C@@H](CCCNC(=N)N)C(=O)N[C@@H](CC(=O)O)C(=O)N[C@@H](Cc1ccccc1)C(=O)N[C@@H](CCC(=O)O)C(=O)N2` [VEGF_CKP9.54.90-Alkyn] (H-[Pra][PEG6]CNIMLPFWGCGRDFECLAGCVCQYYQSCG-OH; disulfide 3-22, 12-18, 24-30; N-terminus and C-terminus assumed), in assay [1] (setting [3]), the kd is given as 0.27.

Take `CC[C@H](C)[C@@H]1NC(=O)[C@H](CC(N)=O)NC(=O)[C@@H](NC(=O)CN)CSSC[C@@H](C(=O)N[C@H](C(=O)N[C@H]2CSSC[C@@H](C(=O)NCC(=O)O)NC(=O)[C@H](CO)NC(=O)[C@H](CCC(N)=O)NC(=O)[C@H](Cc3ccc(O)cc3)NC(=O)[C@H](Cc3ccc(O)cc3)NC(=O)[C@H](CCC(N)=O)NC2=O)C(C)C)NC(=O)CNC(=O)[C@H](C)NC(=O)[C@H](CC(C)C)NC(=O)[C@@H]2CSSC[C@H](NC(=O)CNC(=O)[C@H](Cc3c[nH]c4ccccc34)NC(=O)[C@H](Cc3ccc(O)cc3)NC(=O)[C@@H]3CCCN3C(=O)[C@H](CC(C)C)NC(=O)[C@H](CCSC)NC1=O)C(=O)NCC(=O)N[C@@H](CCCNC(=N)N)C(=O)N[C@@H](CC(=O)O)C(=O)N[C@@H](Cc1ccccc1)C(=O)N[C@@H](CCC(=O)O)C(=O)N2` [VEGF_CKP9.54.90.F8Y] (H-GCNIMLPYWGCGRDFECLAGCVCQYYQSCG-OH; disulfide 2-21, 11-17, 23-29 (inferred); N-terminus and C-terminus assumed): in assay [1], the “effect of F8Y mutation on affinity/potency” value is “modest improvement”. In assay [1] (setting [3]), this molecule had a kd of 0.27.

For the molecule `CSCC[C@@H]1NC(=O)[C@H](C(C)C)NC(=O)[C@H](CC(=O)O)NC(=O)[C@@H](NC(=O)CN)CSSC[C@@H](C(=O)N[C@H](C(=O)N[C@H]2CSSC[C@@H](C(=O)NCC(=O)O)NC(=O)[C@H](CO)NC(=O)[C@H](CC(N)=O)NC(=O)[C@H](Cc3ccc(O)cc3)NC(=O)[C@H](Cc3c[nH]c4ccccc34)NC(=O)[C@H](Cc3c[nH]cn3)NC2=O)C(C)C)NC(=O)CNC(=O)[C@H](C)NC(=O)[C@H](CC(C)C)NC(=O)[C@@H]2CSSC[C@H](NC(=O)CNC(=O)[C@H](Cc3c[nH]c4ccccc34)NC(=O)[C@H](Cc3ccc(O)cc3)NC(=O)[C@@H]3CCCN3C(=O)[C@H](CCC(N)=O)NC1=O)C(=O)NCC(=O)N[C@@H](CCC(=O)O)C(=O)N[C@@H](CC(N)=O)C(=O)N[C@@H](Cc1ccccc1)C(=O)N[C@@H](CC(C)C)C(=O)N2` [VEGF_CKP9.63.1] (H-GCDVMQPYWGCGENFLCLAGCVCHWYNSCG-OH; disulfide 2-21, 11-17, 23-29 (inferred); N-terminus and C-terminus assumed), the “S/N (signal to noise ratio as compared to BSA control)” value in assay [2] (Table 27) turned out to be 25.2. This molecule yielded an ELISA in assay [2] (setting [4]) of 2.0. This molecule showed a kd in assay [1] (hVEGF-A (8-109), Table 29) of 0.37.

As for “GCDVMQPYWGCGMDIECLAGCVCHWYNSCG [VEGF_CKP9.63.16]”, the “S/N (signal to noise ratio as compared to BSA control)” value in assay [2] (Table 27) stood at 10.3. The molecule also yielded an ELISA in assay [2] (setting [4]) of 2.2.

Regarding “GCDVMQPYWGCGNDVSCLAGCVCHWYNSCG [VEGF_CKP9.63.24]”, the “S/N (signal to noise ratio as compared to BSA control)” value in assay [2] (Table 27) is 20.4. This molecule also yielded an ELISA in assay [2] (setting [4]) of 1.6.

Turning to “GCDVMQPYWGCGNSFECLAGCVCHWYNSCG [VEGF_CKP9.63.47]”, the “S/N (signal to noise ratio as compared to BSA control)” value in assay [2] (Table 27) turned out to be 20.7. In addition, in assay [2] (setting [4]), the ELISA is 1.7.

As for “GCDVMQPYWGCGQDLTCLAGCVCHWYNSCG [VEGF_CKP9.63.50]”, the “S/N (signal to noise ratio as compared to BSA control)” value in assay [2] (Table 27) is 12.7. Further, the ELISA in assay [2] (setting [4]) was 0.9.

In the case of “GCDVMQPYWGCGQDYNCLAGCVCHWYNSCG [VEGF_CKP9.63.56]”, the “S/N (signal to noise ratio as compared to BSA control)” value in assay [2] (Table 27) was found to be 8.4. For the same molecule, in assay [2] (setting [4]), the ELISA is 1.8.

“GCDVMQPYWGCGRDLQCLAGCVCHWYNSCG [VEGF_CKP9.63.2]”: the “S/N (signal to noise ratio as compared to BSA control)” value in assay [2] (Table 27) came out at 15.0. Further, the ELISA in assay [2] (setting [4]) was 2.0.

With “GCDVMQPYWGCGVDLSCLAGCVCHWYNSCG [VEGF_CKP9.63.3]”, in assay [2] (Table 27), the “S/N (signal to noise ratio as compared to BSA control)” value is given as 20.7. Besides, the ELISA in assay [2] (setting [4]) is 1.7.

For “GCDVMQPYWGCGVDMTCLAGCVCHWYNSCG [VEGF_CKP9.63.15]”, in assay [2] (Table 27), the “S/N (signal to noise ratio as compared to BSA control)” value is reported as 21.4. The ELISA in assay [2] (setting [4]) is 1.5.

For “GCQLMQPFWGCKQDSDCLAGCVCHWYQSCG [VEGF_CKP9.L5.18]”, in assay [2] (Table 23), the “S/N (signal to noise ratio as compared to BSA control)” value is 20.4. The ELISA in assay [2] (VEGF_CKP9 Loop5 affinity-matured variants, Table 23) amounted to 1.6.
